This is an account of results in paper PMC2693429.

The target of assay [1] is 6 × His-tagged PAI-2 lacking the intrahelical loop between C and D alpha-helices (PAI-2 ΔCD-loop), from pQE9 (human) (UniProt P05120). In words: native MS; positive ion ESI-MS (Q-TOF); 10 μM protein in 10 mM ammonium acetate pH 6.8 with 0.1% formic acid; monomeric and dimeric species seen.
Assay [2] has as its target Recombinant Very Low Density Lipoprotein Receptor (VLDLR) ligand binding region. Nature of the assay: SPR; VLDLR immobilised on a CM5 BIAcore chip (~2,000 response units, amine coupling); analytes in 10 mM Hepes pH 7.4, 150 mM NaCl, 1 mM CaCl2, 0.005% Tween-20 at 20 μL/min; regeneration 100 mM H3PO4; blank cell as reference; 1:1 binding model.

In assay [1], “6 × His-tagged PAI-2 lacking the intrahelical loop between C and D alpha-helices (PAI-2 ΔCD-loop), from pQE9 (from UniProt P05120 1-415) (natural protein)” came in with a stoichiometry N of 2.

As to “uPA:PAI-2 wild-type complex (from UniProt P05120 1-415)”, in assay [2], the dissociation constant Kd was determined as 4.81 nM, the koff stood at 0.00144 s⁻¹ and the on-rate constant (kon) was found to be 375000 M⁻¹ s⁻¹.

Turning to “uPA:PAI-2 ΔCD-loop complex (from UniProt P05120 1-415)”, in assay [2], the Kd turned out to be 4.34 nM, the koff amounted to 0.00136 s⁻¹ and the kon came out at 416000 M⁻¹ s⁻¹.
